The test system of this data set is MBP-ZnF4 (ZnF_1012 fused to GCN4-p-LI coiled coil) (synthetic construct). In words: EMSA. The note with it: 5 nM DNA, 5 nM protein, 5 mM Tris-HCl pH 8.5, 210 mM NaCl, 4.8% glycerol, 0.05% Tween 20, 8 mg/l BSA, 30 min, room temperature, 5% native PAGE in 0.5x Tris-borate. (A gel shift assay detects complexes by their altered migration in electrophoresis.)

This note sets out measurements from paper PMC5458116.

Take “CcrM-methylated 152 bp PCR fragment with 2 ZnF binding sites”: the binding signal (fold weaker than unmethylated DNA (N1)) (adenine-N6 methylated, N6-methyladenine at GANTC sites (CcrM in vitro, both strands)) was 70.
For “unmethylated 152 bp PCR fragment with 2 ZnF binding sites”, the binding signal (fold preference over methylated DNA (N2)) (unlabelled competitors added) was 70.
